What is called IC50 is the midpoint of a concentration-inhibition curve.

These results are taken from patent US20250320281A1.

A value given as a limit tells only on which side of the number the result lay.

Common to all, as to assay: cell-based or functional assay
For assay [1], the target named is HIV-1 JR-FL Env E168K (HIV-1 JR-FL).
Assay [2] has as its target HIV-1 Env of isolate DU422 (clade C pseudovirus) (HIV-1).
The target of assay [3] is HIV-1 Env of isolate CAAN (clade B pseudovirus) (HIV-1).
Assay [4] concerns the target HIV-1 Env of isolate PVO.4 (clade B pseudovirus) (HIV-1).
Assay [5] addresses HIV-1 Env of isolate REJ04541 (clade B pseudovirus) (HIV-1).
The target of assay [6] is HIV-1 Env of isolate 92BR020 (pseudovirus) (HIV-1).
Assay [7] addresses HIV-1 Env of isolate 94UG103 (pseudovirus) (HIV-1).
Assay [8] deals with HIV-1 MGRM-D-018 Env (pseudovirus) (HIV-1 isolate MGRM-D-018 (clade D)).
Assay [9] deals with HIV-1 MGRM-A-010 Env (pseudovirus) (HIV-1 isolate MGRM-A-010 (clade A)).
In assay [10] the target is HIV-1 JRFL Env (pseudovirus) (HIV-1 isolate JRFL (clade B)).
Assay [11] addresses HIV-1 94UG103 Env (pseudovirus) (HIV-1 isolate 94UG103 (clade A)).
Assay [12] concerns the target HIV-1 93IN905 Env (pseudovirus) (HIV-1 isolate 93IN905 (clade C)).
Assay [13] concerns the target HIV-1 MGRM-AG-005 Env (pseudovirus) (HIV-1 isolate MGRM-AG-005 (clade AG)).
For assay [14], the target named is HIV-1 92UG024 Env (pseudovirus) (HIV-1 isolate 92UG024 (clade D)).
Assay [15] deals with HIV-1 APV13 Env (pseudovirus) (HIV-1 isolate APV13 (clade B)).
Assay [16] addresses HIV-1 92BR020 Env (pseudovirus) (HIV-1 isolate 92BR020 (clade B)).
The target in assay [17] is HIV-1 Env of isolate MGRM-F1-010 (HIV-1).
The target in assay [18] is HIV-1 Env of pseudovirus MGRM-AE-008 (subtype AE) (HIV-1).
Assay [19] addresses HIV-1 Env of pseudovirus MGRM-AG-003 (subtype AG) (HIV-1).
In assay [20] the target is HIV-1 Env of isolate MGRM-F1-004 (HIV-1).
The target of assay [21] is HIV-1 MGRM-A-010 envelope glycoprotein (Env) on pseudovirus (HIV-1 isolate MGRM-A-010 (clade A)).
The target in assay [22] is HIV-1 MGRM-C-028 envelope glycoprotein (Env) on pseudovirus (HIV-1 isolate MGRM-C-028 (clade C)).
The target of assay [23] is HIV-1 APV6 envelope glycoprotein (Env) on pseudovirus (HIV-1 isolate APV6 (clade B)).
Assay [24] deals with HIV-1 Env of isolate MG RM-D-021 (clade D), on pseudovirus (HIV-1).
The target in assay [25] is HIV-1 Env of isolate MGRM-F1-017 (clade F pseudovirus) (HIV-1).
The target of assay [26] is HIV-1 Env of isolate JRFL (HIV-1).
The target of assay [27] is HIV-1 Env of isolate MGRM-F1-008 (clade F), on pseudovirus (HIV-1).
The target in assay [28] is HIV-1 Env of pseudovirus 92UG037 (subtype A) (HIV-1).
Assay [29] has as its target HIV-1 94UG103 Env (HIV-1).
Assay [30] has as its target HIV-1 92UG024 Env (HIV-1).
Assay [31] has as its target HIV-1 MGRM-D-001 Env (HIV-1).
A further assay addresses HIV-1 NL43 Env (HIV-1).
Assay [32] concerns the target HIV-1 MGRM-D-018 Env (HIV-1).

1443_C16 (PG16) (TCN-116) (antibody), sequence (VH): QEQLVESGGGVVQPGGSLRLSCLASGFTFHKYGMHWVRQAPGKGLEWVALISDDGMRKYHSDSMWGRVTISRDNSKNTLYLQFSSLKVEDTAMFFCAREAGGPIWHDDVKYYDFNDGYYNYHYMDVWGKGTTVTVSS
1443_C16 (PG16) (TCN-116) (antibody), sequence (VL): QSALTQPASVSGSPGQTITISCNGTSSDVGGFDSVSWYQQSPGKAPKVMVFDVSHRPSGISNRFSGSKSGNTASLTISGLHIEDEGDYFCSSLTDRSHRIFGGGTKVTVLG

With 1443_C16 (PG16) (TCN-116) (antibody), the IC50 (ug/ml), pseudovirus neutralization, TZM-bl assay in [1] was 0.006 µg/mL. Besides, the IC50 (neutralization, TZM-bl pseudovirus assay) was 0.59 µg/mL in assay [2], 6.37 µg/mL in assay [3], 12.3 µg/mL in assay [4] and < 0.01 µg/mL in [5].
For 4858_P08 (PGT-123) (antibody), the Primary Neutralization Index (B cell culture supernatant) in assay [6] was 2.8; in [7], 1.1.
Take 5123_A06 (PGT-125) (antibody): the Neutralization by PGT-125, IC50 in [8] is 0.0382 µg/mL; in [9], 0.0055 µg/mL; in [10], 0.0156 µg/mL; in assay [11], 0.0124 µg/mL; in assay [12], 0.0137 µg/mL; in assay [13], > 10 µg/mL. The Neutralization by PGT-125, IC50 in [14] is > 10 µg/mL; in assay [15], 0.0128 µg/mL; in assay [16], 0.0214 µg/mL. Moreover, the Neutralization by PGT-125, IC80 is 0.144 µg/mL in assay [8]; 0.024 µg/mL in assay [9]; 0.0462 µg/mL in [10]; 0.0373 µg/mL in assay [11]; 0.0494 µg/mL in assay [12]; > 10 µg/mL in [13]. Moreover, the values for the Neutralization by PGT-125, IC80 in assay [14], in assay [15] and in [16] were > 10 µg/mL, 0.0414 µg/mL and 0.0738 µg/mL, respectively. The Neutralization by PGT-125, IC90 is 0.339 µg/mL in assay [8]; 0.0575 µg/mL in assay [9]; 0.0873 µg/mL in assay [10]; 0.071 µg/mL in [11]; 0.106 µg/mL in [12]; > 10 µg/mL in assay [13]. Moreover, the Neutralization by PGT-125, IC90 in assay [14] was > 10 µg/mL; in assay [15], 0.0821 µg/mL; in assay [16], 0.156 µg/mL. The Neutralization by PGT-125, IC95 in assay [8] was 0.892 µg/mL; in assay [9] it was 0.131 µg/mL; in [10], 0.157 µg/mL; in [11], 0.129 µg/mL; in assay [12] it was 0.216 µg/mL; in assay [13], > 10 µg/mL. The figures for the Neutralization by PGT-125, IC95 in assay [14], in assay [15] and in [16] were > 10 µg/mL, 0.154 µg/mL and 0.323 µg/mL, respectively.
VRC01 (antibody): the IC50 in [17] is 0.097 µg/mL; in [20], 0.305 µg/mL. Also, the IC50, pseudovirus neutralization in assay [18] stood at 1.72 µg/mL; in assay [19] it was 0.043 µg/mL.
In assay [21], 1496_C09 (PG9) (TCN-109) (antibody) gave a neutralization IC50 of 0.0375 µg/mL, a neutralization IC80 of 0.121 µg/mL, a neutralization IC90 of 0.242 µg/mL and a neutralization IC95 of 0.456 µg/mL. In [22], the neutralization IC50 amounted to 0.121 µg/mL, the neutralization IC80 is 0.645 µg/mL, the neutralization IC90 is 1.65 µg/mL and the neutralization IC95 was determined as 3.71 µg/mL. In assay [23], this substance registered a neutralization IC50 of 0.214 µg/mL, a neutralization IC80 of 1.13 µg/mL, a neutralization IC90 of 3.21 µg/mL and a neutralization IC95 of 9.65 µg/mL.
As for PGV04 (antibody), the IC50 (µg/mL), pseudovirus neutralization in assay [24] is > 50 µg/mL; in assay [25], 2.38 µg/mL; in assay [26], 0.032 µg/mL; in assay [27] it was 1.03 µg/mL. In [28], the IC50, pseudovirus neutralization was found to be 0.145 µg/mL.
For 4877_D15 (PGT-122) (antibody), the Neutralization by PGT-122, IC50 was 1.46 µg/mL in [29]; > 10 µg/mL in [30]; 0.867 µg/mL in assay [31]; > 10 µg/mL with HIV-1 NL43 Env (HIV-1); 0.0115 µg/mL in assay [32]. The Neutralization by PGT-122, IC80 in assay [29] is 6.58 µg/mL; in assay [30], > 10 µg/mL; in assay [31], 4.48 µg/mL; with HIV-1 NL43 Env (HIV-1), > 10 µg/mL; in [32], 0.035 µg/mL. The Neutralization by PGT-122, IC90 was > 10 µg/mL in assay [29]; > 10 µg/mL in [30]; > 10 µg/mL in assay [31]; > 10 µg/mL with HIV-1 NL43 Env (HIV-1); 0.0674 µg/mL in [32]. Besides, the Neutralization by PGT-122, IC95 in assay [29] is > 10 µg/mL; in [30] it was > 10 µg/mL; in assay [31], > 10 µg/mL; in the assay with HIV-1 NL43 Env (HIV-1), > 10 µg/mL; in [32], 0.125 µg/mL.
